Results from paper PMC2572860.

Target: apoMb samples (RNCs bearing apoMb nascent polypeptides of increasing length)
Experiment: co-sedimentation

DnaK, sequence (P0A6Y8 whole entry): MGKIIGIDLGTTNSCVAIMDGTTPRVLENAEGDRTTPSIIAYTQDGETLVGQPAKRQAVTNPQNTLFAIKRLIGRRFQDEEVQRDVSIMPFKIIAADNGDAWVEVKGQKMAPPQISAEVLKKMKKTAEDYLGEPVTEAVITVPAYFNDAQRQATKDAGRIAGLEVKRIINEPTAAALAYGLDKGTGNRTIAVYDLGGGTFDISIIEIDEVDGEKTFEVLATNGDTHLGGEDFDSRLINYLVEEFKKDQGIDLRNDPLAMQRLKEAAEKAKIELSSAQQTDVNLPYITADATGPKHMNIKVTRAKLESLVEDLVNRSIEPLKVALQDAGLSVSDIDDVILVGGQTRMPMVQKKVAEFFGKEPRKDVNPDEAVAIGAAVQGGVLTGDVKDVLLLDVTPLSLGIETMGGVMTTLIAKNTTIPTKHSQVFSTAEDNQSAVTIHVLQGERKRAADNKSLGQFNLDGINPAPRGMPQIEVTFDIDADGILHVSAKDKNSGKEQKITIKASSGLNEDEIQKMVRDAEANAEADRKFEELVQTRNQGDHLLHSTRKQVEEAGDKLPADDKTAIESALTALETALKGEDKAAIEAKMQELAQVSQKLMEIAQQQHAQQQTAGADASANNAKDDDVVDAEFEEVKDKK

- DnaK concentration in the resuspended RNC pellet: 20 to 65 nM
Substance: DnaK (from UniProt P0A6Y8 1-638) (natural protein)
